In publication PMC3137751 (Biochemistry, 2010):
Read-outs that look alike come from different tables or passages of the source.

What was measured:
AUC [1] = biological target: the molecule itself; test: AUC
[2] = substrate: O=C(O)C[C@H](C(=O)O)[C@@H](O)C(=O)O; test: Apparent S0.5 for isocitrate; type: biochemical; conditions: pH 7.4; 24.0 °C
AUC [3] = biological target: the molecule itself; test: AUC; remark: listed apart in the source

Protein	stoichiometry N (AUC [1])	K0.5 [2]	stoichiometry N (AUC [3])
IDH1^G15D/IDH2 enzyme (complex, yeast) chain 1: ATAAQAERTLPKKYDGRFTVTLIPGDGVGKEITDSVRTIFEAENIPIDWETINIKQTDHKEGVYEAVESLKRNKIGLKGLWHTPADQTGHGSLNVALRKQLDIYANVALFKSLKGVKTRIPDIDLIVIRENTEGEFSGLEHESVPGVVESLKVMTRPKTERIARFAFDFAKKYNRKSVTAVHKANIMKLGDGLFRNIITEIGQKEYPDIDVSSIIVDNASMQAVAKPHQFDVLVTPSMYGTILGNIGAALIGGPGLVAGANFGRDYAVFEPGSRHVGLDIKGQNVANPTAMILSSTLMLNHLGLNEYATRISKAVHETIAEGKHTTRDIGGSSSTTDFTNEIINKLSTM chain 2: ATVKQPSIGRYTGKPNPSTGKYTVSFIEGDGIGPEISKSVKKIFSAANVPIEWESCDVSPIFVNGLTTIPDPAVQSITKNLVALKGPLATPIGKGHRSLNLTLRKTFGLFANVRPAKSIEGFKTTYENVDLVLIRENTEGEYSGIEHIVCPGVVQSIKLITRDASERVIRYAFEYARAIGRPRVIVVHKSTIQRLADGLFVNVAKELSKEYPDLTLETELIDNSVLKVVTNPSAYTDAVSVCPNLYGDILSDLNSGLSAGSLGLTPSANIGHKISIFEAVHGSAPDIAGQDKANPTALLLSSVMMLNHMGLTNHADQIQNAVLSTIASGPENRTGDLAGTATTSSFTEAVIKRL	4	0.60/0.13 (±0.13/0.01) mM	–
^-5IDH1^G15A/IDH2 enzyme (complex, yeast) chain 1: AERTLPKKYAGRFTVTLIPGDGVGKEITDSVRTIFEAENIPIDWETINIKQTDHKEGVYEAVESLKRNKIGLKGLWHTPADQTGHGSLNVALRKQLDIYANVALFKSLKGVKTRIPDIDLIVIRENTEGEFSGLEHESVPGVVESLKVMTRPKTERIARFAFDFAKKYNRKSVTAVHKANIMKLGDGLFRNIITEIGQKEYPDIDVSSIIVDNASMQAVAKPHQFDVLVTPSMYGTILGNIGAALIGGPGLVAGANFGRDYAVFEPGSRHVGLDIKGQNVANPTAMILSSTLMLNHLGLNEYATRISKAVHETIAEGKHTTRDIGGSSSTTDFTNEIINKLSTM chain 2: ATVKQPSIGRYTGKPNPSTGKYTVSFIEGDGIGPEISKSVKKIFSAANVPIEWESCDVSPIFVNGLTTIPDPAVQSITKNLVALKGPLATPIGKGHRSLNLTLRKTFGLFANVRPAKSIEGFKTTYENVDLVLIRENTEGEYSGIEHIVCPGVVQSIKLITRDASERVIRYAFEYARAIGRPRVIVVHKSTIQRLADGLFVNVAKELSKEYPDLTLETELIDNSVLKVVTNPSAYTDAVSVCPNLYGDILSDLNSGLSAGSLGLTPSANIGHKISIFEAVHGSAPDIAGQDKANPTALLLSSVMMLNHMGLTNHADQIQNAVLSTIASGPENRTGDLAGTATTSSFTEAVIKRL	> 4	–	–
^-5IDH1^D168A/IDH2 enzyme (complex, yeast) chain 1: AERTLPKKYGGRFTVTLIPGDGVGKEITDSVRTIFEAENIPIDWETINIKQTDHKEGVYEAVESLKRNKIGLKGLWHTPADQTGHGSLNVALRKQLDIYANVALFKSLKGVKTRIPDIDLIVIRENTEGEFSGLEHESVPGVVESLKVMTRPKTERIARFAFAFAKKYNRKSVTAVHKANIMKLGDGLFRNIITEIGQKEYPDIDVSSIIVDNASMQAVAKPHQFDVLVTPSMYGTILGNIGAALIGGPGLVAGANFGRDYAVFEPGSRHVGLDIKGQNVANPTAMILSSTLMLNHLGLNEYATRISKAVHETIAEGKHTTRDIGGSSSTTDFTNEIINKLSTM chain 2: ATVKQPSIGRYTGKPNPSTGKYTVSFIEGDGIGPEISKSVKKIFSAANVPIEWESCDVSPIFVNGLTTIPDPAVQSITKNLVALKGPLATPIGKGHRSLNLTLRKTFGLFANVRPAKSIEGFKTTYENVDLVLIRENTEGEYSGIEHIVCPGVVQSIKLITRDASERVIRYAFEYARAIGRPRVIVVHKSTIQRLADGLFVNVAKELSKEYPDLTLETELIDNSVLKVVTNPSAYTDAVSVCPNLYGDILSDLNSGLSAGSLGLTPSANIGHKISIFEAVHGSAPDIAGQDKANPTALLLSSVMMLNHMGLTNHADQIQNAVLSTIASGPENRTGDLAGTATTSSFTEAVIKRL	–	–	8
